Assay results published in US8772451.

Columns and labels:
[1] = target: HLA-A2.1 presenting p53 (aa264-273) peptide, on T2 cells (human); test: flow cytometry on peptide-loaded T2 cells, fusion protein at 125 pM, H57-PE detection
[2] = target: HLA-A2.1 presenting human p53 (aa 149-157) control peptide, on T2 cells (human); test: as above
[3] = target: HLA-A2.1 presenting p53 (aa264-273) peptide, on T2 cells (human); test: quantitative flow cytometry on peptide-loaded T2 cells, PE anti-human IgG detection
[4] = target: cognate MHC/peptide of the 264scTCR (HLA-A2.1/p53 aa 264-272), form in SPR not stated (human); test: surface plasmon resonance, physiological conditions

| Substance | mean channel fluorescence (MCF) [1] [MCF] | mean channel fluorescence (MCF) [2] [MCF] | fold increase in staining against 264scTCR/BirA tetramers [3] [fold] | Kd [4] [µM] |
| --- | --- | --- | --- | --- |
| 264scTCR/trunIgG1 (from UniProt P01857 1-98) | 55.3 | 10.9 |  |  |
| 264scTCR/IgG1 fusion protein (from UniProt P01857 1-330) | 863 | 119 | 4 to 10 |  |
| 264scTCR/BirA (monomeric, without biotinylation) | 95.1 | 13.4 |  |  |
| 264scTCR |  |  |  | 0.1 |
